Assay results: publication PMC5084270 (The Journal of Cell Biology, 2016)

Molecular target: FLAG-DDB1 (UniProt Q16531 1-1140)
Experiment: pull-down

Sequence of FLAG-DDB1 (Q16531 whole entry): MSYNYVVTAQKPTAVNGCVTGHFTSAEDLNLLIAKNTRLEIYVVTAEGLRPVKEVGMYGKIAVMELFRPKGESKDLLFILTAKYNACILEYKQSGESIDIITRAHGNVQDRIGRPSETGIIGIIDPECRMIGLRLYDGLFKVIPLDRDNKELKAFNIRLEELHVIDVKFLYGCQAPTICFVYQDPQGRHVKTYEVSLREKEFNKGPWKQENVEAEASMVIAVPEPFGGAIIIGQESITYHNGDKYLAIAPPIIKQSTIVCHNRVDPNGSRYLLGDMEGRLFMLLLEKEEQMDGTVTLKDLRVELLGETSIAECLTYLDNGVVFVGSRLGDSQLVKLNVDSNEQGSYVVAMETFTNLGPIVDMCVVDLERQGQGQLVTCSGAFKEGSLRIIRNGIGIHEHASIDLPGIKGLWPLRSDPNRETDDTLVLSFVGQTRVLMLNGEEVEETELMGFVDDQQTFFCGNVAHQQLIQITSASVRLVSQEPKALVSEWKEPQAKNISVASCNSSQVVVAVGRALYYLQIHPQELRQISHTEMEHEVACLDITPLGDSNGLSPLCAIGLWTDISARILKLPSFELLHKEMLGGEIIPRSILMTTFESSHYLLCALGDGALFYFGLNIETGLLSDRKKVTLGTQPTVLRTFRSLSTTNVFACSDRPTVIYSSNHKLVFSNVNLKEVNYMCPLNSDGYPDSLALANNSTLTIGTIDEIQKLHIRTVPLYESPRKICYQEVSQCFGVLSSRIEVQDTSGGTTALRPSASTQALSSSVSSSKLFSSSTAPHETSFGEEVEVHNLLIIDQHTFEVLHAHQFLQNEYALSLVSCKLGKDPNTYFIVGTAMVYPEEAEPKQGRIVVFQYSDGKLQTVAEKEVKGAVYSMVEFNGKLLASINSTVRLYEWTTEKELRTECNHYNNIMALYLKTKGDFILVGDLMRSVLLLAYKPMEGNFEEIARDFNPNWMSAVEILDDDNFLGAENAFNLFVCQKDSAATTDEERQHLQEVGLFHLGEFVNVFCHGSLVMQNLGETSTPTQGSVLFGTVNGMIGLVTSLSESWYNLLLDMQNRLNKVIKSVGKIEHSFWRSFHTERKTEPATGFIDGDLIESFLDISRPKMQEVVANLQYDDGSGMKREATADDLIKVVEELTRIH

- binding result: binds
B1: GFP-DDB2 (natural protein)
chain: MAPKKRPETQKTSEIVLRPRNKRSRSPLELEPEAKKLCAKGSGPSRRCDSDCLWVGLAGPQILPPCRSIVRTLHQHKLGRASWPSVQQGLQQSFLHTLDSYRILQKAAPFDRRATSLAWHPTHPSTVAVGSKGGDIMLWNFGIKDKPTFIKGIGAGGSITGLKFNPLNTNQFYASSMEGTTRLQDFKGNILRVFASSDTINIWFCSLDVSASSRMVVTGDNVGNVILLNMDGKELWNLRMHKKKVTHVALNPCCDWFLATASVDQTVKIWDLRQVRGKASFLYSLPHRHPVNAACFSPDGARLLTTDQKSEIRVYSASQWDCPLGLIPHPHRHFQHLTPIKAAWHPRYNLIVVGRYPDPNFKSCTPYELRTIDVFDGNSGKMMCQLYDPESSGISSLNEFNPMGDTLASAMGYHILIWSQEEARTRK
